Test results reported in US20230131339A1, “EPI-X4 BASED PEPTIDES AND DERIVATIVES THEREOF” (Universitaet Ulm, priority 2020, published 2023).
Where no end group is shown, it is not given here. Side-chain parts run from the residue outwards. [ ]: non-standard residue; d: D form. The star is where a group is joined. Stearoyl = CCCCCCCCCCCCCCCCCC(=O)*; Palmitoyl = CCCCCCCCCCCCCCCC(=O)*; Myristoyl = CCCCCCCCCCCCCC(=O)*; Glu = glutamate linker; Chl = cholesterol

Molecular target: CXC chemokine receptor type 4 (CXCR4) (human, UniProt P61073 1-352)
Experiment: cell-based or functional assay

Sequence of CXC chemokine receptor type 4 (CXCR4) (P61073 whole entry): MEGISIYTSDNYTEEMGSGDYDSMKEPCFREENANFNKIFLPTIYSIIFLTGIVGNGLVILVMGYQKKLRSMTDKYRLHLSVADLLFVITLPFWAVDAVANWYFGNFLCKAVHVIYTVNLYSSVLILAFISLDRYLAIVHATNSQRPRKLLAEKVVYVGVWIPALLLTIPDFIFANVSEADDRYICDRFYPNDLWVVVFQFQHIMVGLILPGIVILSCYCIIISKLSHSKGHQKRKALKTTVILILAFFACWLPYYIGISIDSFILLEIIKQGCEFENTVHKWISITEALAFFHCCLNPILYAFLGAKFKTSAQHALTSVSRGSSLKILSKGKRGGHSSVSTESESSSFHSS

| Binder | IC50, HIV inhibition assay |
| --- | --- |
| [dI]LRWSRK-NH2 [JM#173] | > 150 nM |
| ILRWSRK(Dec)LPCVS [JM#215] | > 150 nM |
| IVRWSK(Palmitoyl)K-NH2 [JM#164] | > 150 nM |
| [dI]LRWSRK(Palmitoyl)LP-NH2 [JM#175] | > 150 nM |
| [dI]LRWSRK(Palmitoyl)-NH2 [JM#237] | > 150 nM |
| IVRWSK(Palmitoyl)KVPCVS [JM#168] | > 150 nM |
| Ac-ILRWSRKLPCVS [JM#185] | > 150 nM |
| ILRWSRK(Stearoyl)LPCVS [JM#182] | > 150 nM |
| VLRWSRKLPCVS [JM#189] | > 150 nM |
| M[dL]RWSRK(Palmitoyl)-NH2 (N-terminus assumed; SMILES CCCCCCCCCCCCCCCC(=O)NCCCC[C@H](NC(=O)[C@H](CCCNC(=N)N)NC(=O)[C@H](CO)NC(=O)[C@H](Cc1c[nH]c2ccccc12)NC(=O)[C@H](CCCNC(=N)N)NC(=O)[C@@H](CC(C)C)NC(=O)[C@@H](N)CCSC)C(N)=O) [JM#181] | > 150 nM |
| [dL]LRWSRK(Palmitoyl)-NH2 (N-terminus assumed; SMILES CCCCCCCCCCCCCCCC(=O)NCCCC[C@H](NC(=O)[C@H](CCCNC(=N)N)NC(=O)[C@H](CO)NC(=O)[C@H](Cc1c[nH]c2ccccc12)NC(=O)[C@H](CCCNC(=N)N)NC(=O)[C@H](CC(C)C)NC(=O)[C@H](N)CC(C)C)C(N)=O) [JM#236] | > 150 nM |
| [dL]LRWSRK(Myristoyl)-NH2 (N-terminus assumed; SMILES CCCCCCCCCCCCCC(=O)NCCCC[C@H](NC(=O)[C@H](CCCNC(=N)N)NC(=O)[C@H](CO)NC(=O)[C@H](Cc1c[nH]c2ccccc12)NC(=O)[C@H](CCCNC(=N)N)NC(=O)[C@H](CC(C)C)NC(=O)[C@H](N)CC(C)C)C(N)=O) [JM#261] | > 150 nM |
| IVRWSKK(Palmitoyl)-NH2 [JM#165] | > 150 nM |
| ILRWSRK(Chl)LPCVS [JM#184] | > 150 nM |
| ILRWSRKLPCVS (not fully specified (residue 7)) [JM#204] | > 150 nM |
| ILRWSRK([Glu-Palmitoyl])LPSVS [SEQ ID NO.: 163] | > 150 nM |
| M[dL]RWSRK(Palmitoyl)LP-NH2 (N-terminus assumed; SMILES CCCCCCCCCCCCCCCC(=O)NCCCC[C@H](NC(=O)[C@H](CCCNC(=N)N)NC(=O)[C@H](CO)NC(=O)[C@H](Cc1c[nH]c2ccccc12)NC(=O)[C@H](CCCNC(=N)N)NC(=O)[C@@H](CC(C)C)NC(=O)[C@@H](N)CCSC)C(=O)N[C@@H](CC(C)C)C(=O)N1CCC[C@H]1C(N)=O) [JM#179] | > 150 nM |
| [dL]MRWSRK(Palmitoyl)MPCVS [JM#176] | > 150 nM |
